Source: US10034836B2, “Formulations of guanylate cyclase C agonists and methods of use” (SYNERGY PHARMACEUTICALS, INC., priority 2008, dated 2018)
Where a SMILES comes first, the peptide text is derived from it. Bridges are numbered along the chain shown (N, C = ends). Primed or numbered codes have the meaning given here. Where no end group is shown, it is not given here. [ ]: non-standard residue; d: D form. PEG3′ = polyethylene glycol such as aminoethyloxy-ethyloxy-acetic acid (AeeA), and polymers thereof

Columns and labels:
intestinal GC-C receptor = target: T1, intestinal GC-C receptor (Homo sapiens, UniProt P25092); experiment: Cyclic GMP stimulation assay in T84 cells; assay type: cell-based; details: for potency to stimulate cGMP synthesis in T84 cells relative to SP-333: peggylated analogs of SP-333, 30 min (FIG. 8); for potency in cGMP stimulation assay relative to SP-339 (linaclotide): 30 min exposure (FIG. 6); for ability to stimulate cGMP synthesis in T84 cells relative to SP-304: 30 min exposure (FIG. 5)
T1 construct: confluent monolayers of T-84 cells in 24-well plates; host or cells: T84 human colon carcinoma cells
From the text: FIG. 4: Biological activity of truncated peptides of 16-mer SP-304, as measured by stimulation of cGMP synthesis in T84 cells. SP-338 15-mer peptide is indentical to SP-304 except that it lacks Leu at the C-terminus. SP-327, SP-329 and SP-331 lack Leu at their C-termini relative to their corresponding parents, SP-326, SP-328 and SP-330, respectively. Data points shown are the average of duplicate measurements.
FIG. 5: Stimulation of cGMP synthesis in T84 cells by SP-304 and similar analogs. T84 cells were exposed to test peptides for 30 min and cell lysates were then used to determine intracellular cGMP levels. Data points shown are the average of triplicate measurements±SD.
FIG. 6: Stimulation of cGMP synthesis in T84 cells by SP-339 (linaclotide) and other linaclotide analogs. T84 cells were exposed to test peptides for 30 min and cell lysates were then used to determine intracellular cGMP levels. Data points shown are the average of triplicate measurements±SD.
FIG. 8: Stimulation of cGMP synthesis in T84 cells by the peggylated analogs of SP-333. T84 cells were exposed to the indicated peptides for 30 min and cell lysates were used to determine intracellular cGMP levels. Data points shown are the average of triplicate measurements±SD.
After the 30 min incubation, the medium was aspirated and the reaction was terminated by the addition of 3% perchloric acid. Following centrifugation and the addition of NaOH (0.1 N) to neutralize the pH, intracellular cGMP levels were determined in lysates using a cGMP ELISA kit (Cat. No. 581021; Cayman Chemical, Ann Arbor, Mich.). Peptide incubations were run in duplicate, and samples taken from each incubation were run as duplicates in the ELISA test.
The ability of the GCC agonist peptide to bind to and activate the intestinal GC-C receptor was tested using T84 human colon carcinoma cell line. Human T84 colon carcinoma cells were obtained from the American Type Culture Collection. Cells were grown in a 1:1 mixture of Ham's F-12 medium and Dulbecco's modified Eagle's medium (DMEM) supplemented with 10% fetal bovine serum, 100 U penicillin/ml, and 100 μg/ml streptomycin. The cells were fed fresh medium every third day and split at a confluence of approximately 80%.
Biological activity of the GCC agonist peptides was assayed as previously reported (Shailubhai, et al., Cancer Research 60, 5151-5157 (2000)). Briefly, the confluent monolayers of T-84 cells in 24-well plates were washed twice with 250 μl of DMEM containing 50 mM HEPES (pH 7.4), pre-incubated at 37° C. for 10 min with 250 μl of DMEM containing 50 mM HEPES (pH 7.4) and 1 mM isobutylmethylxanthine (IBMX), followed by incubation with GCC agonist peptides (0.1 nM to 10 µM) for 30 min. The medium was aspirated, and the reaction was terminated by the addition of 3% perchloric acid. Following centrifugation, and neutralization with 0.1 N NaOH, the supernatant was used directly for measurements of cGMP using an ELISA kit (Caymen Chemical, Ann Arbor, Mich.).
An additional strategy to render peptides more resistant towards digestion by digestive proteases is to peggylate them at the N- and C-terminus. The peptide SP-333 was peggylated with the aminoethyloxy-ethyloxy-acetic acid (Aeea) group at the C-terminus (SP-347) or at the N-terminus (SP-350) or at both termini (SP-343). Cyclic GMP synthesis in T84 cells was measured by the method as described above.

[1] = Stability in simulated intestinal fluid (SIF), biological activity by cGMP synthesis in T84 cells; assay type: in vitro ADME
Description: FIG. 2A: Biological activity of SP-304 incubated for varying lengths of time in simulated intestinal fluid (SIF). SP-304 samples were incubated for 0, 30, 60, 90, 150, and 300 min, respectively, and then tested for their ability to stimulate cGMP synthesis in T84 cells. The cGMP stimulation activity in the sample at 0 min of incubation time in SIF was taken as 100% biological activity. The activities of the other SP-304 incubation samples were calculated as the percentage of activity relative to that of the 0 min sample. Data points shown are the average of triplicate measurements±SD.
(§1) FIG. 7A: Biological activity of SP-333 incubated for varying lengths of time in simulated intestinal fluid (SIF). SP-333 samples incubated for 0, 5, 10, 30, 60, and 120 min, respectively, were tested for their ability to stimulate cGMP synthesis in T84 cells. The control sample marked as C120 was produced by incubating SP-333 with heat inactivated SIF for 120 min. Samples from the incubations were removed and heated at 95° C. for 5 min to inactivate digestive enzymes and then used to stimulate cyclic GMP synthesis in T84 cells. The cGMP stimulation activity in the sample at 0 min of incubation time in SIF was taken as 100% biological activity. The activities of the other SP-304 incubation samples were calculated as the percentage of activity relative to that of the 0 min sample. Data points shown are the average of triplicate measurements±SD.
as §1, with “FIG. 7B:” for “FIG. 7A:”, “of SP-332” for “of SP-333”, “incubating SP-332” for “incubating SP-333”
FIG. 7C: Biological activity of SP-304 incubated for varying lengths of time in simulated intestinal fluid (SIF). SP-304 samples incubated for 0, 10, and 60 min, respectively, were tested for their ability to stimulate cGMP synthesis in T84 cells. The control samples marked as C0 and C60 were produced by incubating SP-304 with heat inactivated SIF for 0 and 60 min, respectively. Samples from the incubations were removed and heated at 95° C. for 5 min to inactivate digestive enzymes and then used to stimulate cyclic GMP synthesis in T84 cells. The cGMP stimulation activity in the sample at 0 min of incubation time in SIF was taken as 100% biological activity. The activities of the other SP-304 incubation samples were calculated as the percentage of activity relative to that of the 0 min sample. […]
FIGS. 7G-1-7G-5: Incubation of SP-333 with SIF for 2, 6, 12 and 24 hrs. Effect of SIF digestion on the activity of SP-333 in T84 stimulation assay was determined (FIG. 7G-1) and samples were also analyzed by HPLC (FIGS. 7G2-5). […]
The stability of SP-304 was also evaluated after incubation with simulated intestinal fluid (SIF) by measuring its biological activity and by HPLC analyses (FIGS. 2A & 2B). […]

T1 sequence (P25092 24-1073): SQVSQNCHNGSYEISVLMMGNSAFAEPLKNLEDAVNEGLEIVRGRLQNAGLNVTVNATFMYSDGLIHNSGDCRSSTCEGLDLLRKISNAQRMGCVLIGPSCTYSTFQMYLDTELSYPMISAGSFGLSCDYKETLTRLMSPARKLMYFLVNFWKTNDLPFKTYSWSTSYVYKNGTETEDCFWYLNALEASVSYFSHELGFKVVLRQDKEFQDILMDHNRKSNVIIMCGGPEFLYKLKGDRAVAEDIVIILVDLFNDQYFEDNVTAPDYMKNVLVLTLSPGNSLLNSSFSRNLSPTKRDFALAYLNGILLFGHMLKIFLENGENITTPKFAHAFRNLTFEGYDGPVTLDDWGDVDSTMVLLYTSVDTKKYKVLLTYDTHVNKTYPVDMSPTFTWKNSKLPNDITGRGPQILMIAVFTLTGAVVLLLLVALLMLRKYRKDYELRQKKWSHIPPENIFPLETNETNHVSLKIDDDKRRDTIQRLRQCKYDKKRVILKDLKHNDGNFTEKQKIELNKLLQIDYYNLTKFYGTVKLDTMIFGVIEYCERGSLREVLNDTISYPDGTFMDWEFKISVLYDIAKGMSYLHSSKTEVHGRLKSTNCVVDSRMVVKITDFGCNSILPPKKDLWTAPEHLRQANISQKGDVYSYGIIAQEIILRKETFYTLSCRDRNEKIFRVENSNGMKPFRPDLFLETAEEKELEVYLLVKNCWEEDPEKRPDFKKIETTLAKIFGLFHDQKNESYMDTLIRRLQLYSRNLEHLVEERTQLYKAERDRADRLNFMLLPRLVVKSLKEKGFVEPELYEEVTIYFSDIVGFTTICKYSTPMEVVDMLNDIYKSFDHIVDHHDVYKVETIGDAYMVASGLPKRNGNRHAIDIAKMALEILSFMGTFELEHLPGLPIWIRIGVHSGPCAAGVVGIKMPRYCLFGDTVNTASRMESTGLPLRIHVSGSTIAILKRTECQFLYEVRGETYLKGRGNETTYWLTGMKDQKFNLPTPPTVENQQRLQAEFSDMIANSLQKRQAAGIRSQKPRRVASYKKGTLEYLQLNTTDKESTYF

Compound | potency to stimulate cGMP synthesis in T84 cells relative to SP-333 (intestinal GC-C receptor) | potency in cGMP stimulation assay relative to SP-339 (linaclotide) (intestinal GC-C receptor) | further results
PEG3-dAsn^1-Asp^2-Glu^3-Cys^4-Glu^5-Leu^6-Cys^7-Val^8-Asn^9-Val^10-Ala^11-Cys^12-Thr^13-Gly^14-Cys^15-dLeu^16-PEG3 ([PEG3′][dN]DECELCVNVACTGC[dL][PEG3′]; ends and bridges not checked) [SP-343] | considerably less potent |  | 
PEG3-dAsn^1-Asp^2-Glu^3-Cys^4-Glu^5-Leu^6-Cys^7-Val^8-Asn^9-Val^10-Ala^11-Cys^12-Thr^13-Gly^14-Cys^15-dLeu^16 ([PEG3′][dN]DECELCVNVACTGC[dL]; ends and bridges not checked) [SP-350] | comparable to SP-333 |  | 
Cys^1-Cys^2-Glu^3-Tyr^4-Cys^5-Cys^6-Asn^7-Pro^8-Ala^9-Cys^10-Thr^11-Gly^12-Cys^13-dTyr^14 [SP-355] |  | considerably less potency | 
Asn^1-Phe^2-Cys^3-Cys^4-Glu^5-Phe^6-Cys^7-Cys^8-Asn^9-Pro^10-Ala^11-Cys^12-Thr^13-Gly^14-Cys^15-Tyr^16 (NFCCEFCCNPACTGCY; disulfide 4-12, 7-15, 3-8) [SP-354] |  | virtually identical to SP-339 | 
Asn^1-Asp^2-Glu^3-Cys^4-Glu^5-Leu^6-Cys^7-Val^8-Asn^9-Val^10-Ala^11-Cys^12-Thr^13-Gly^14-Cys^15 (NDECELCVNVACTGC) [SP-338] |  |  | biological activity retained relative to full length 16-mer SP-304 (cGMP synthesis in T84 cells) (intestinal GC-C receptor; peptide 1.0 μM, 30 min (FIG. 4)): about 80%
CC(C)C[C@@H]1NC(=O)[C@H](CCC(=O)O)NC(=O)[C@@H](NC(=O)[C@H](CCC(=O)O)NC(=O)[C@H](CC(=O)O)NC(=O)[C@@H](N)CC(N)=O)CSSC[C@@H]2NC(=O)[C@H](C)NC(=O)[C@H](C(C)C)NC(=O)[C@H](CC(N)=O)NC(=O)[C@H](C(C)C)NC(=O)[C@H](CSSC[C@@H](C(=O)N[C@H](CC(C)C)C(=O)O)NC(=O)CNC(=O)[C@H]([C@@H](C)O)NC2=O)NC1=O [SP-332, Asn^1-Asp^2-Glu^3-Cys^4-Glu^5-Leu^6-Cys^7-Val^8-Asn^9-Val^10-Ala^11-Cys^12-Thr^13-Gly^14-Cys^15-dLeu^16] (H-NDECELCVNVACTGC[dL]-OH; disulfide 4-12, 7-15) |  |  | potency following incubation with SIF [1]: minor reduction in potency
dAsn^1-Asp^2-Glu^3-Cys^4-Glu^5-dLeu^6-Cys^7-Val^8-Asn^9-Val^10-Ala^11-Cys^12-Thr^13-Gly^14-Cys^15-dLeu^16 ([dN]DECE[dL]CVNVACTGC[dL]; ends and bridges not checked) [SP-337] |  |  | ability to stimulate cGMP synthesis in T84 cells relative to SP-304 (intestinal GC-C receptor): virtually complete loss of biological activity
dAsn^1-dAsp^2-dGlu^3-Cys^4-Glu^5-Leu^6-Cys^7-Val^8-Asn^9-Val^10-Ala^11-Cys^12-Thr^13-Gly^14-Cys^15-dLeu^16 ([dN][dD][dE]CELCVNVACTGC[dL]; disulfide (positions not given here); also: disulfides, number and pairing not given here) [SP-335] |  |  | ability to stimulate cGMP synthesis in T84 cells relative to SP-304 (intestinal GC-C receptor): comparable ability
dAsn^1-Asp^2-Glu^3-Cys^4-Glu^5-Leu^6-Cys^7-Val^8-Asn^9-Val^10-Ala^11-Cys^12-Thr^13-Gly^14-Cys^15-dLeu^16-PEG3 ([dN]DECELCVNVACTGC[dL][PEG3′]; ends and bridges not checked) [SP-347] | comparable to SP-333 |  | 
Asn^1-Phe^2-Cys^3-Cys^4-Glu^5-Ser^6-Cys^7-Cys^8-Asn^9-Pro^10-Ala^11-Cys^12-Thr^13-Gly^14-Cys^15-Tyr^16 (NFCCESCCNPACTGCY; disulfide 4-12, 7-15, 3-8) [SP-353] |  | more potent than SP-339 | 
